In article PMC3366460:

Biological target: HsUbcH5b(C85S)~Ub oxyester-linked conjugate (human | mammalian) (UniProt P62837)
Assay: pull-down

stoichiometry N: 4
Substance: HsUbcH5b(C85S)~Ub oxyester-linked conjugate (from UniProt P62837 1-147; P0CG48 1-76) (complex)
